Experimental data taken from PMC9388160, “A multidomain connector links the outer membrane and cell wall in phylogenetically deep-branching bacteria” (Proceedings of the National Academy of Sciences of the …, 2022).

Assays:
DR_0644 = DR_0644 (uncharacterized protein, UniProt Q9RWM2) (D. radiodurans); assay: cryo-EM structure; single-particle cryo-EM of SlpA purified from D. radiodurans, in 20 mM Hepes/NaOH pH 7.5, 150 mM NaCl, 0.02% DDM; 4.45 mg/mL; C3 symmetry; global resolution 3.25 Å
[1] = target: the molecule itself; assay: as above

Molecule “DR_0644 (uncharacterized protein, UniProt Q9RWM2) (natural protein)” has a stoichiometry N (DR_0644) of 3.

B1: SlpA (Deinococcus radiodurans outer membrane protein, UniProtKB Q9RRB6) (natural protein, D. radiodurans, UniProt Q9RRB6 23-1167, looked up)
chain: APVSAPQVPALTDVPAGHWAKDAIDRLVSRGVILGYPDGTFRGTQNLTRYEAAIIIARLLDQMRDGETPAGMTAEDMTALQNAIQELAADLAALGVRVSDLEANAVSKDDFARLEARIEEVAAAGGEQGATEALQGQIDDLTARVDEYDALRADVDDNASSIAALNDLTVLLNQDILDLQDRVSAVEAAQADFVQRSDFDALGGRVTTVETRVETVNNSLTGRIAALERNAFSVKPSLTIGYSVSRTSRNFDVDRLFPLNADGTVANNAFTSGGIDTDTGAQRRDFGDFGNASDPVVAGAAGLYGFADGVSYTVYFTDGSTATFDGLNPADYKVPTGKVIDTTKGRNGFGFNNLARYKEGSTDIGISLGFDTSGQFSQVTSGTGGSLFSTAGRLQVNQIDLNFGLVTGLPSDAYVDTNGNGKKDDGEATGRGTYLGSGGTAAILRDPAGNVYRPVFFRFKNATTQFSVGNNPVIVTLGQQQKFYFSDYVFDNNYDGRGDGFTVTVDGSNVPVIGAWKPQIKGVYGSRSGLDGTAEAGYGVYYRGVRAQITPVGTLTAGIHYAQEGRDMFGAAQNTTSTPSDVTTYGADLHGKAFGVELHSEYATSRVRPNTANAAVQTSNAFYARVATRKDNLAFDLNTPAAKFGNDTFGVSLYDLNYRKIDAGYNNVAGISEYGYGSYSRTSAQNIAYNPDTGVTAPFANLDRQAYTDANNDGTSDRNADGTVVATNTKIGQMGFGVKAAANLGPVAIGGYYDTSTGANGDNANRMTEAGGSAKVAYSIFSLRGTYNTLDSNRPQIYRDAAGTQIIGDAKVRRYAVQADVTPGLGLFVGAYYRDVNVNGVRSTTDRGLLGRGYLASSFEPGVGNNAYRTGLRCADNNFGTGTRDIDGVGGVLNPAVNLDQSRTATCFTSYGVEAGHAGDNANALVKDLFFRVGYSRVYVPTTATATTGDFSGSVTYGDARYDRKVGVANVRLAGSFSTTNTQLDSRPAGTRGAVGLIVRTDPLENVPFRPQFNGQVGYYTADNRVAAGNYNANATKYGAGVVLNDFLLPQTKIGVRYDGYMAQNRQYTPFDGDGTQGYFSDANNNRRTNLNGVYVEGAYQDLIFSYGTYTLSQKDLNGVEYGSGINNGQPARGQTFKISYKVNF
notes: SlpA, D. radiodurans, UniProtKB Q9RRB6; wild-type protein purified from the bacterium; The map is well resolved from residue 215 onwards; Native, untagged protein in DDM micelles; it models the periplasmic segment from residue 20; also called SlpA protein complex; SlpA trimer; source: purified from D. radiodurans (ATCC BAA816): lysozyme treatment, DDM extraction, HiTrap-Q, Superose 6 Increase
In the case of B1, the “stoichiometry N” value [1] is reported as 3.
